One molecule from paper PMC12030614 can be followed below.

* marks the point of attachment. AMC = Cc1cc(=O)oc2cc(N*)ccc12

The target in assay [1] is Ta-V6 (Triticum aestivum L.).
In assay [2] the target is Triticain-α (Triticum aestivum L.).
Assay [3] deals with Ta-P7 (Triticum aestivum L.).

B1: acetyl-Pro-Leu-Val-Gln-7-amino-4-methylcoumarin (peptide)
peptide: Ac-PLVQ-{AMC}
SMILES: CC(=O)N1CCC[C@H]1C(=O)N[C@@H](CC(C)C)C(=O)N[C@H](C(=O)N[C@@H](CCC(N)=O)C(=O)Nc1ccc2c(C)cc(=O)oc2c1)C(C)C
Consider B1, for which, in assay [1], the KM of Ac-PLVQ-AMC hydrolysis, pH 3.6, 37 °C came out at 16.4 µM; the KM of Ac-PLVQ-AMC hydrolysis, pH 4.6, 37 °C stood at 20.5 µM; the KM of Ac-PLVQ-AMC hydrolysis, pH 5.6, 37 °C is 22.6 µM; the KM of Ac-PLVQ-AMC hydrolysis, pH 6.5, 37 °C is 26.9 µM. Besides, the KM of Ac-PLVQ-AMC hydrolysis, pH 7.5, 37 °C in assay [1] was 29.2 µM. Further, in assay [2], the KM of Ac-PLVQ-AMC hydrolysis, pH 3.6, 37 °C was 21.5 µM; the KM of Ac-PLVQ-AMC hydrolysis, pH 4.6, 37 °C worked out at 34.6 µM; the KM of Ac-PLVQ-AMC hydrolysis, pH 5.6, 37 °C amounted to 46 µM; the KM of Ac-PLVQ-AMC hydrolysis, pH 6.5, 37 °C turned out to be 49.4 µM. Further, the KM of Ac-PLVQ-AMC hydrolysis, pH 7.5, 37 °C in assay [2] was 583 µM. In assay [3], the KM of Ac-PLVQ-AMC hydrolysis, pH 3.6, 37 °C was found to be 44.7 µM; the KM of Ac-PLVQ-AMC hydrolysis, pH 4.6, 37 °C was 32.2 µM; the KM of Ac-PLVQ-AMC hydrolysis, pH 5.6, 37 °C worked out at 24.5 µM; the KM of Ac-PLVQ-AMC hydrolysis, pH 6.5, 37 °C was determined as 31.4 µM. Besides, in assay [3], the KM of Ac-PLVQ-AMC hydrolysis, pH 7.5, 37 °C was determined as 35.3 µM.
